Experimental findings from PMC6096048, “The Cytochrome bd Complex Is Essential for Chromate and Sulfide Resistance and Is Regulated by a GbsR-Type Regulator, CydE, in Alishewanella Sp. WH16-1” are described below.

The series has as its target T1, CydE (GbsR-type regulator) (Alishewanella sp. WH16-1, UniProt A0ABQ3KUT0 1-187).
T1 sequence: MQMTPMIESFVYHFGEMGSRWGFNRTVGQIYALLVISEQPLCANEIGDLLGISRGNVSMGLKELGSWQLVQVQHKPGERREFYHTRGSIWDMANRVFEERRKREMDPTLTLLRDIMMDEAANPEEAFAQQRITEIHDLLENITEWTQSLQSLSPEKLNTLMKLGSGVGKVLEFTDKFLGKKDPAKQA
Briefly: EMSA; ethidium bromide stain; EMSA: 20 uL with 2 uL 10x binding buffer (listed as 10 mM Tris pH 7.5, 10 mM EDTA, 1 mM KCl, 1 mM DTT, 50% glycerol, 0.1 mg/mL BSA), 37 C 30 min, 8% native PAGE in 0.5x TGE pH 8.0; footprinting: same mix, DNase I 10 min at room temperature. The conditions noted are these: protein: recombinant; tags: His6 (pET28a); chain copies: 2; (synthesized).

B1: CydE binding site 2 (dsDNA)
DNA 1: GGGATGCGCATATGCAAAT
DNA 2: ATTTGCATATGCGCATCCC
As to B1, the binding result is “binds”.

B2: CydE binding site 1 (dsDNA)
DNA 1: TATTTCAGAAATTTCTGAAAGTTCA
DNA 2: TGAACTTTCAGAAATTTCTGAAATA
As to B2, the binding result is “binds”.
